{"source": "paper PMC10053502", "biological_target": "S. pneumoniae DNA topoisomerase I (TopoI), purified (S. pneumoniae)"}
{"substance": "histidine-tagged StaR (H6-StaR), product of spr0929 of Streptococcus pneumoniae R6 (natural protein)", "values": [{"measurement": "relaxation of pBR322 by TopoI in vitro (37 °C, 1 h) with increasing StaR concentrations; percent of topoisomers (including OC/RC forms) at the highest StaR concentration (CCC form fell to 2.5%)", "value": 97.5, "unit": "%"}]}
